Laboratory results taken from patent publication US12559749B2, “Methods of rescuing stop codons via genetic reassignment with ACE-tRNA” (UNIVERSITY OF IOWA RESEARCH FOUNDATION, priority 2017, dated 2026).

Test system: CFTR G542X
Assay: Two-electrode voltage clamp of CFTR Cl- current in Xenopus oocytes, G542X
Assay type: cell-based
Experimental: FIGS. 20A-20D. Delivery of ACE-tRNA as small RNA supports robust suppression of G542X and W1282X nonsense mutations. FIG. 20A) CFTR cRNA with G542X or W1282X cystic fibrosis causing nonsense mutations was co-injected in Xenopus oocytes with serial dilutions of pre-folded ACE-tRNAGly and ACE-tRNATrp, respectively. Two-electrode voltage-clamp recordings of CFTR Cl— current were performed after 36 hrs. Current-voltage relationships illustrate that increasing amounts of FIG. 20B) ACE-tRNATrp and FIG. 20C) ACE-tRNAGly pre-folded RNA results in increased CFTR function (measured CFTR Cl— currents) with WT CFTR achieved in ACE-tRNAGly experiments. FIG. 20D) Dose response of G542X ACE-tRNAGly (filled circles) and W1282X ACE-tRNATrp (open squares) rescue (CFTR Cl— currents elicited at +40 mV were normalized to WT CFTR Cl— currents at +40 mV).
In vitro cRNA transcription. G5-42XUGA, W1282XUGA, and WT CFTR pGEMHE (Mense et al., 2006; PMID:1703051) plasmids were linearized by 10× excess of NheI-HF restriction enzyme (site positioned 3′ of coding region)(New England BioLabs, USA) for 3 hrs at 37° C. and purified using standard cDNA precipitation methods. All cRNAs were transcribed using the mMessage mMachine T7 Kit (ThermoFisher Scientific, USA). Purification of the cRNA from the transcription reaction was conducted on columns from the RNeasy Mini Kit (Qiagen, Germany). Concentration was determined by absorbance measurements at 260 nm and quality was confirmed on a 1% agarose gel (RNase-free). All cRNA was queued to 1 μg/ml before use and all results were generated from ≥2:2 cRNA preparations.
Expression in Xenopus laevis oocytes. Xenopus laevis oocytes (stage V and VI) were purchased from Ecocyte (Austin, TX). […]
Two-electrode voltage clamp ([…]) recordings. CFTR Cl^− currents were recorded in ND96 bath solution that contained (in mM): 96 NaCl, 2 KCl, 1 MgCl2, and 5 HEPES (pH 7.5) in the presence of a maximal CFTR activation cocktail, forskolin (10 μM; adenylate cyclase activator) and 3-isobutyl-1-methylxanthine (1 mM; phosphodiesterase inhibitor). […]

B1: Glychr19.trna2: top performing glycine ACE-tRNA UGA, SEQ ID NO: 53 (nucleic acid)
chain: GCGUUGGUGGUAUAGUGGUUAGCAUAGCUGCCUUCAAAGCAGUUGACCCGGGUUCGAUUCCCGGCCAACGCA
modifications: chemistry not given here
Dose response of G542X rescue
  Hill coefficient: ~1.4
Normalized to WT CFTR Cl- currents
  level of CFTR function reached: clear saturation at WT CFTR levels
pre-folded ACE-tRNA RNA per oocyte, 36 hrs, currents at +40 mV normalized to WT CFTR
  EC50 of CFTR Cl- current rescue: ~20 ng
